The target of assay [1] is T1, human TL1A (human, UniProt O95150 72-251).
T1 construct: Antigen in SPR and ELISA; Also used here for places that print only 'TL1A' and for endogenous TL1A in human whole blood; also called TNFSF15
T1 sequence (looked up): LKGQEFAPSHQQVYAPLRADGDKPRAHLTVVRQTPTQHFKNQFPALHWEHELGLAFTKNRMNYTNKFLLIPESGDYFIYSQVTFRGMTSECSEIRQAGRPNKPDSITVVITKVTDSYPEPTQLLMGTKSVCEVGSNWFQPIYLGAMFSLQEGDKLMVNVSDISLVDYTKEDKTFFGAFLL
The experiment in a line: SPR, Fab format.

In assay [2] the target is T1, human TL1A. As to the kind of experiment: SPR, Fab lysate, average. (SPR reads the build-up and loss of mass on a sensor chip optically.)
Assay [3] has as its target T2, Cyno TL1A (cyno, UniProt G7PRK8 72-251).
T2 sequence: T1 sequence (looked up) with F39L, I78V
As to the kind of experiment: SPR, Fab format, average.

Assay [4] concerns the target T1, human TL1A. The experiment in a line: SPR, Fab format, average.

Changes are numbered by the printed parent chain.

B1: Antibody 51 (Fab format) (Fab, V domains shown)
VH: QVQLQESGPGLVRPSQTLSLTCTVSGFDIQDTYMHWVRQRPGRGLEWMGRIEPAGGHTKYNPSLKSRVTITRDTSKNQVSLRLSSVTAADTAVYYCVRSGGLPDAWGQGSLVTVSS
VL: DIQMTQSPSSLSASVGDRVTITCRASQGVEYMYWYQQKPGKAPKLLIYGASNLASGVPSRFSGSGSGTDFTFTISSLQPEDIATYYCQQWEGNPRTFGQGTKVEIK
notes: Backup lead, Fab format
As for B1, in assay [1], the binding result is given as “binds”.

B2: Antibody 30 (Fab format) (Fab, V domains shown)
VH: B1 VH
VL: B1 VL with Q27S, G28S, E30S, G49S
notes: Backup lead, Fab format
In the case of B2, in assay [1], the binding result is on record as “binds”.

B3: Antibody 42 (Fab format) (Fab, V domains shown)
VH: B1 VH with Q30T, A105V
VL: B1 VL with E30G
notes: Backup lead, Fab format
Take B3: the binding result in assay [1] is recorded as “binds”.

B4: Antibody 45 (Fab format) (Fab, V domains shown)
VH: B1 VH with Q30E, G55S, V97A, R98I, L102V, A105V
VL: B1 VL with Q27S, G28S, E30S, G49A, A50T
notes: Backup lead, Fab format
For B4, the binding result in assay [1] is on record as “binds”.

B5: Antibody 3 (Fab format) (Fab, V domains shown)
VH: B1 VH
VL: B1 VL with E30R
notes: High priority lead, Fab format
In general, Kd refers to the equilibrium constant for the complex coming apart. Read a low Kd as tighter binding. Take B5: the Kd in assay [2] was 0.31 nM; in assay [3] it was 0.62 nM; in assay [4] it was 0.31 nM.

B6: Antibody 41 (Fab format) (Fab, V domains shown)
VH: B1 VH with Q30T, A105V
VL: B1 VL with Q27S, G28S, E30S, G49S
notes: Backup lead, Fab format
Consider B6, for which, in assay [1], the binding result is listed as “binds”.

B7: Antibody 53 (Fab format) (Fab, V domains shown)
VH: B1 VH with G55S, V97A, L102M, P103M, A105R
VL: B1 VL with E30R
notes: Backup lead, Fab format
Turning to B7, in assay [1], the binding result is given as “binds”.

B8: Antibody 1 (Fab format) (Fab, V domains shown)
VH: B1 VH with V97A, R98S, L102M, A105L
VL: B1 VL
notes: High priority lead, Fab format; also called Lead #1
Consider B8, for which the Kd in assay [2], in assay [3] and in assay [4] was 0.17 nM each time.

B9: Antibody 24 (Fab format) (Fab, V domains shown)
VH: B1 VH
VL: B1 VL with E30G, G49A, A50T
notes: Backup lead, Fab format
B9: in assay [1], the binding result is “binds”.

B10: Antibody 34 (Fab format) (Fab, V domains shown)
VH: B1 VH with F27L, I29P, Q30D, R98I, A105V
VL: B1 VL with V29I, E30Y, G49A, A50T
notes: Backup lead, Fab format
For the molecule B10, the binding result in assay [1] is “binds”.

B11: Antibody 39 (Fab format) (Fab, V domains shown)
VH: B1 VH
VL: B1 VL with Q27S, G28S, E30S, G49A, A50T
notes: Backup lead, Fab format
B11: in assay [1], the binding result is on record as “binds”.

B12: Antibody 4 (Fab format) (Fab, V domains shown)
VH: B1 VH with I29M, Q30A, A105M
VL: B1 VL with Q27S, G28S, E30S
notes: as for B5
For B12, the dissociation constant (Kd) in assay [2] amounted to 0.33 nM; in assay [3], 0.16 nM; in assay [4], 0.33 nM.

B13: Antibody 33 (Fab format) (Fab, V domains shown)
VH: B1 VH
VL: B1 VL with G49A, A50T
notes: Backup lead, Fab format
Take B13: in assay [1], the binding result is reported as “binds”.

B14: Antibody 27 (Fab format) (Fab, V domains shown)
VH: B1 VH
VL: B1 VL with E30R, G49A, A50T
notes: Backup lead, Fab format
As for B14, in assay [1], the binding result is “binds”.

B15: Antibody 2 (Fab format) (Fab, V domains shown)
VH: B1 VH with F27L, I29P, Q30D, R98I, A105V
VL: B1 VL with Q27S, G28S, E30S, G49A, A50T
notes: as for B5
Consider B15, for which the values for the Kd in assay [2], in assay [3] and in assay [4] were 0.2 nM, 0.94 nM and 0.2 nM, respectively.

The record behind these values is US20250109209A1 (ABSCI, published 2025).
